According to patent US20140087995A1 (published 2014):
Numbered stars: 1 amine (or outer) side, 2 acyl side, 3 side chain; on linkers, the order of the positions; unused ones are H or OH. Bridge positions count the residues as written; N and C are the ends. Side chains are listed from the residue outwards. Ends that are not written are not given here. * marks the point of attachment. C20 diacid = O=C(O)CCCCCCCCCCCCCCCCCCC(=O)*; γGlu = O=C(O)[C@H](CCC(=O)[*:2])N[*:1]; AEEA = NCCOCCOCC(=O)O

T1: human calcitonin receptor (human, UniProt P30988 25-474)
T1 construct: whole, on cells; Used as cell membranes; also called hCTR; hCT
T1 sequence (looked up): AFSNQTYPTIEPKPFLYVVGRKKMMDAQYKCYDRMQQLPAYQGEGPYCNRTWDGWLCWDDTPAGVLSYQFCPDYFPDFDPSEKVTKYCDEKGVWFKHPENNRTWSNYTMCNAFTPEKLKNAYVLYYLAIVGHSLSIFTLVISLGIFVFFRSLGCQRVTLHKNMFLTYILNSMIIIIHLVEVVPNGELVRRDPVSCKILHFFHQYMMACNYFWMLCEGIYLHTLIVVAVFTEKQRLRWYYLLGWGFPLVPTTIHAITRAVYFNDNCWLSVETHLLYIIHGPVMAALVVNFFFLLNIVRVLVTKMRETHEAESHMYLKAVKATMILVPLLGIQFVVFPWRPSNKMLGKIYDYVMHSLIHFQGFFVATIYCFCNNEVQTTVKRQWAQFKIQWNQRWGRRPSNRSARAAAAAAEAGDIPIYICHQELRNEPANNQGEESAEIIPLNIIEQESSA


Columns and labels:
[1] = target: T1, human calcitonin receptor; assay: ratio of hCTR IC50 to hAmylin-R IC50 (reference: human amylin receptor)
Summary of the method: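 Membranes (35 ng/μL final) + SPA beads, 50 mM Hepes pH 7.4 buffer with 1 mM CaCl2, 5 mM MgCl₂, 0.1% OA, 0.02% Tween20; 120 min, 25° C, shaking; centrifuged, counted; IC₅₀ by one-site binding competition.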

[2] = target: T1, human calcitonin receptor; assay: SPA competition on BHK cell membranes, 125I-calcitonin as radioligand (Assay VII)
Summary of the method: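 BHK hCTR membranes 35 ng/μL + SPA beads 0.05 mg/well; buffer 50 mM Hepes pH 7.4, 1 mM CaCl2, 5 mM MgCl₂, 0.1% OA, 0.02% Tween20. 120 min, 25° C., shaking. Scintillation count; IC50 by one-site binding competition.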

| Binder | Ratio hCT/hAmylin binding [1] | IC50 [2] |
| --- | --- | --- |
| K([AEEA-γGlu-C20 diacid])CNTATCATQRLAHFLRHSSPNFGAIPSSTNVGSNTY-NH2 (disulfide 2-7; N-terminus assumed; SMILES CC[C@H](C)[C@H](NC(=O)[C@H](C)NC(=O)CNC(=O)[C@H](Cc1ccccc1)NC(=O)[C@H](CC(N)=O)NC(=O)[C@@H]1CCCN1C(=O)[C@H](CO)NC(=O)[C@H](CO)NC(=O)[C@H](Cc1c[nH]cn1)NC(=O)[C@H](CCCNC(=N)N)NC(=O)[C@H](CC(C)C)NC(=O)[C@H](Cc1ccccc1)NC(=O)[C@H](Cc1c[nH]cn1)NC(=O)[C@H](C)NC(=O)[C@H](CC(C)C)NC(=O)[C@H](CCCNC(=N)N)NC(=O)[C@H](CCC(N)=O)NC(=O)[C@@H](NC(=O)[C@H](C)NC(=O)[C@@H]1CSSC[C@H](NC(=O)[C@@H](N)CCCCNC(=O)COCCOCCNC(=O)CC[C@H](NC(=O)CCCCCCCCCCCCCCCCCCC(=O)O)C(=O)O)C(=O)N[C@@H](CC(N)=O)C(=O)N[C@@H]([C@@H](C)O)C(=O)N[C@@H](C)C(=O)N[C@@H]([C@@H](C)O)C(=O)N1)[C@@H](C)O)C(=O)N1CCC[C@H]1C(=O)N[C@@H](CO)C(=O)N[C@@H](CO)C(=O)N[C@H](C(=O)N[C@@H](CC(N)=O)C(=O)N[C@H](C(=O)NCC(=O)N[C@@H](CO)C(=O)N[C@@H](CC(N)=O)C(=O)N[C@H](C(=O)N[C@@H](Cc1ccc(O)cc1)C(N)=O)[C@@H](C)O)C(C)C)[C@@H](C)O, also called compound 69) | 65.3 | 8.68 nM |
| K([AEEA-γGlu-C20 diacid])CNTATCATQRLASFLRHSSPNFGAIPSSTPVGSNTY-NH2 (disulfide 2-7; N-terminus assumed; SMILES CC[C@H](C)[C@H](NC(=O)[C@H](C)NC(=O)CNC(=O)[C@H](Cc1ccccc1)NC(=O)[C@H](CC(N)=O)NC(=O)[C@@H]1CCCN1C(=O)[C@H](CO)NC(=O)[C@H](CO)NC(=O)[C@H](Cc1c[nH]cn1)NC(=O)[C@H](CCCNC(=N)N)NC(=O)[C@H](CC(C)C)NC(=O)[C@H](Cc1ccccc1)NC(=O)[C@H](CO)NC(=O)[C@H](C)NC(=O)[C@H](CC(C)C)NC(=O)[C@H](CCCNC(=N)N)NC(=O)[C@H](CCC(N)=O)NC(=O)[C@@H](NC(=O)[C@H](C)NC(=O)[C@@H]1CSSC[C@H](NC(=O)[C@@H](N)CCCCNC(=O)COCCOCCNC(=O)CC[C@H](NC(=O)CCCCCCCCCCCCCCCCCCC(=O)O)C(=O)O)C(=O)N[C@@H](CC(N)=O)C(=O)N[C@@H]([C@@H](C)O)C(=O)N[C@@H](C)C(=O)N[C@@H]([C@@H](C)O)C(=O)N1)[C@@H](C)O)C(=O)N1CCC[C@H]1C(=O)N[C@@H](CO)C(=O)N[C@@H](CO)C(=O)N[C@H](C(=O)N1CCC[C@H]1C(=O)N[C@H](C(=O)NCC(=O)N[C@@H](CO)C(=O)N[C@@H](CC(N)=O)C(=O)N[C@H](C(=O)N[C@@H](Cc1ccc(O)cc1)C(N)=O)[C@@H](C)O)C(C)C)[C@@H](C)O, also called compound 73) | 51.7 | 5.38 nM |
| K([AEEA-γGlu-C20 diacid])CNTATCATQRLAKFLRHSSPNFGAIPSSTPVGSNTY-NH2 (disulfide 2-7; N-terminus assumed; SMILES CC[C@H](C)[C@H](NC(=O)[C@H](C)NC(=O)CNC(=O)[C@H](Cc1ccccc1)NC(=O)[C@H](CC(N)=O)NC(=O)[C@@H]1CCCN1C(=O)[C@H](CO)NC(=O)[C@H](CO)NC(=O)[C@H](Cc1c[nH]cn1)NC(=O)[C@H](CCCNC(=N)N)NC(=O)[C@H](CC(C)C)NC(=O)[C@H](Cc1ccccc1)NC(=O)[C@H](CCCCN)NC(=O)[C@H](C)NC(=O)[C@H](CC(C)C)NC(=O)[C@H](CCCNC(=N)N)NC(=O)[C@H](CCC(N)=O)NC(=O)[C@@H](NC(=O)[C@H](C)NC(=O)[C@@H]1CSSC[C@H](NC(=O)[C@@H](N)CCCCNC(=O)COCCOCCNC(=O)CC[C@H](NC(=O)CCCCCCCCCCCCCCCCCCC(=O)O)C(=O)O)C(=O)N[C@@H](CC(N)=O)C(=O)N[C@@H]([C@@H](C)O)C(=O)N[C@@H](C)C(=O)N[C@@H]([C@@H](C)O)C(=O)N1)[C@@H](C)O)C(=O)N1CCC[C@H]1C(=O)N[C@@H](CO)C(=O)N[C@@H](CO)C(=O)N[C@H](C(=O)N1CCC[C@H]1C(=O)N[C@H](C(=O)NCC(=O)N[C@@H](CO)C(=O)N[C@@H](CC(N)=O)C(=O)N[C@H](C(=O)N[C@@H](Cc1ccc(O)cc1)C(N)=O)[C@@H](C)O)C(C)C)[C@@H](C)O, also called compound 74) | 101 | 79.9 nM |

Other lines, results leading:

| Ratio hCT/hAmylin binding [1] | IC50 [2] | Binder |
| --- | --- | --- |
| 46.3 | 6.86 nM | K([γGlu-C20 diacid])CNTATCATQRLAAFLRHSSPNFGAIPSSTNVGPNTY-NH2 (disulfide 2-7; N-terminus assumed; SMILES CC[C@H](C)[C@H](NC(=O)[C@H](C)NC(=O)CNC(=O)[C@H](Cc1ccccc1)NC(=O)[C@H](CC(N)=O)NC(=O)[C@@H]1CCCN1C(=O)[C@H](CO)NC(=O)[C@H](CO)NC(=O)[C@H](Cc1c[nH]cn1)NC(=O)[C@H](CCCNC(=N)N)NC(=O)[C@H](CC(C)C)NC(=O)[C@H](Cc1ccccc1)NC(=O)[C@H](C)NC(=O)[C@H](C)NC(=O)[C@H](CC(C)C)NC(=O)[C@H](CCCNC(=N)N)NC(=O)[C@H](CCC(N)=O)NC(=O)[C@@H](NC(=O)[C@H](C)NC(=O)[C@@H]1CSSC[C@H](NC(=O)[C@@H](N)CCCCNC(=O)CC[C@H](NC(=O)CCCCCCCCCCCCCCCCCCC(=O)O)C(=O)O)C(=O)N[C@@H](CC(N)=O)C(=O)N[C@@H]([C@@H](C)O)C(=O)N[C@@H](C)C(=O)N[C@@H]([C@@H](C)O)C(=O)N1)[C@@H](C)O)C(=O)N1CCC[C@H]1C(=O)N[C@@H](CO)C(=O)N[C@@H](CO)C(=O)N[C@H](C(=O)N[C@@H](CC(N)=O)C(=O)N[C@H](C(=O)NCC(=O)N1CCC[C@H]1C(=O)N[C@@H](CC(N)=O)C(=O)N[C@H](C(=O)N[C@@H](Cc1ccc(O)cc1)C(N)=O)[C@@H](C)O)C(C)C)[C@@H](C)O, also called compound 94) |
| 101 | 17.8 nM | K([γGlu-C20 diacid])CNTATCATQRLAAFLRHSSPNFGAIPSSTNVGHNTY-NH2 (disulfide 2-7; N-terminus assumed; SMILES CC[C@H](C)[C@H](NC(=O)[C@H](C)NC(=O)CNC(=O)[C@H](Cc1ccccc1)NC(=O)[C@H](CC(N)=O)NC(=O)[C@@H]1CCCN1C(=O)[C@H](CO)NC(=O)[C@H](CO)NC(=O)[C@H](Cc1c[nH]cn1)NC(=O)[C@H](CCCNC(=N)N)NC(=O)[C@H](CC(C)C)NC(=O)[C@H](Cc1ccccc1)NC(=O)[C@H](C)NC(=O)[C@H](C)NC(=O)[C@H](CC(C)C)NC(=O)[C@H](CCCNC(=N)N)NC(=O)[C@H](CCC(N)=O)NC(=O)[C@@H](NC(=O)[C@H](C)NC(=O)[C@@H]1CSSC[C@H](NC(=O)[C@@H](N)CCCCNC(=O)CC[C@H](NC(=O)CCCCCCCCCCCCCCCCCCC(=O)O)C(=O)O)C(=O)N[C@@H](CC(N)=O)C(=O)N[C@@H]([C@@H](C)O)C(=O)N[C@@H](C)C(=O)N[C@@H]([C@@H](C)O)C(=O)N1)[C@@H](C)O)C(=O)N1CCC[C@H]1C(=O)N[C@@H](CO)C(=O)N[C@@H](CO)C(=O)N[C@H](C(=O)N[C@@H](CC(N)=O)C(=O)N[C@H](C(=O)NCC(=O)N[C@@H](Cc1c[nH]cn1)C(=O)N[C@@H](CC(N)=O)C(=O)N[C@H](C(=O)N[C@@H](Cc1ccc(O)cc1)C(N)=O)[C@@H](C)O)C(C)C)[C@@H](C)O, also called compound 93) |
| 91.4 | 60.9 nM | K([AEEA-γGlu-C20 diacid])CNTATCATQRLATFLRHSSPNFGAIPSSTPVGSNTY-NH2 (disulfide 2-7; N-terminus assumed; SMILES CC[C@H](C)[C@H](NC(=O)[C@H](C)NC(=O)CNC(=O)[C@H](Cc1ccccc1)NC(=O)[C@H](CC(N)=O)NC(=O)[C@@H]1CCCN1C(=O)[C@H](CO)NC(=O)[C@H](CO)NC(=O)[C@H](Cc1c[nH]cn1)NC(=O)[C@H](CCCNC(=N)N)NC(=O)[C@H](CC(C)C)NC(=O)[C@H](Cc1ccccc1)NC(=O)[C@@H](NC(=O)[C@H](C)NC(=O)[C@H](CC(C)C)NC(=O)[C@H](CCCNC(=N)N)NC(=O)[C@H](CCC(N)=O)NC(=O)[C@@H](NC(=O)[C@H](C)NC(=O)[C@@H]1CSSC[C@H](NC(=O)[C@@H](N)CCCCNC(=O)COCCOCCNC(=O)CC[C@H](NC(=O)CCCCCCCCCCCCCCCCCCC(=O)O)C(=O)O)C(=O)N[C@@H](CC(N)=O)C(=O)N[C@@H]([C@@H](C)O)C(=O)N[C@@H](C)C(=O)N[C@@H]([C@@H](C)O)C(=O)N1)[C@@H](C)O)[C@@H](C)O)C(=O)N1CCC[C@H]1C(=O)N[C@@H](CO)C(=O)N[C@@H](CO)C(=O)N[C@H](C(=O)N1CCC[C@H]1C(=O)N[C@H](C(=O)NCC(=O)N[C@@H](CO)C(=O)N[C@@H](CC(N)=O)C(=O)N[C@H](C(=O)N[C@@H](Cc1ccc(O)cc1)C(N)=O)[C@@H](C)O)C(C)C)[C@@H](C)O, also called compound 75) |
